Results published in publication PMC12373786, “Targeted protein degradation in Escherichia coli using CLIPPERs” (EMBO Reports, 2025).
Square brackets hold non-standard residues; d marks the D form. Primed or numbered codes have the meaning given here. Ends that are not written are not given here. PEG3′ = three-unit polyethylene glycol linker

Legend:
[1] = biological target: His-SUMO-XB-GGS-SBP (E. coli); assay: BLI; His-SUMO-tagged peptide loaded on Octet NTA biosensors (150 nM Anchor-Linker or 100 nM GroTAC1), blocked with His-SUMO; ClpX 1 uM to 31.25 nM in solution; 30 °C; 25 mM HEPES pH 8.0, 200 mM KCl, 10 mM MgCl2, 0.05% Tween-20, 2.5 mM ATP; 1:1 model
[2] = biological target: His-SUMO-XB-GGS (E. coli); assay: as above
[3] = biological target: His-SUMO-XB-GGS-SBP (E. coli); assay: BLI; His-SUMO-tagged peptide loaded on Octet NTA biosensors (150 nM Anchor-Linker or 100 nM GroTAC1), blocked with 86 nM His-SUMO; ClpX as analyte, 1 uM to 31.25 nM; 30 C; 25 mM HEPES pH 8.0, 200 mM KCl, 10 mM MgCl2, 0.05% Tween-20, 2.5 mM ATP; 1:1 fit
[4] = biological target: His-SUMO-XB-GGS (E. coli); assay: as above
[5] = biological target: His-SUMO-XB-GGS-SBP (E. coli); assay: BLI; His-SUMO-tagged peptide loaded on Octet NTA biosensors (200 nM Linker-Bait or 400 nM GroTAC1), blocked with 257 nM His-SUMO; GroEL as analyte, 2.5 uM to 78.1 nM; 30 C; 25 mM HEPES pH 8.0, 300 mM KCl, 10 mM MgCl2, 0.05% Tween-20, 12.5 mM ATP; 1:1 fit
His-SUMO-GGS-SBP [6] = assay: as above
[7] = biological target: His-SUMO-XB-GGS-SBP (E. coli); assay: BLI; His-SUMO-tagged peptide loaded on Octet NTA biosensors (200 nM Linker-Bait or 400 nM GroTAC1), blocked with His-SUMO; GroEL 2.5 uM to 78.1 nM in solution; 30 °C; 25 mM HEPES pH 8.0, 300 mM KCl, 10 mM MgCl2, 0.05% Tween-20, 12.5 mM ATP; 1:1 model
His-SUMO-GGS-SBP [8] = assay: as above
His-ZBD = biological target: T1, His-ZBD (E. coli, UniProt P0A6H1 1-52); assay: BLI; 1.37 uM His-ZBD loaded on Octet NTA biosensors, blocked with 600 nM cAbGFP; untagged synthetic peptide as analyte, 1 uM to 31.25 nM; 30 C; 25 mM HEPES pH 8.0, 200 mM KCl, 10 mM MgCl2, 2.5 mM ATP, 0.05% Tween 20; 1:1 fit; conditions: both partners purified
T1 construct: also called 6xHis-ZBD; source: E. coli BL21 DE3, purified (HisTrap, Superdex200); not shown: His6, N-terminal, kept
T1 sequence (looked up): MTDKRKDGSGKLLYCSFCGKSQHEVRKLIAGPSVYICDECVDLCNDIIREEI

A Kd [1] of 70 nM, a Kd [2] of 65 nM and a Kd [3] of 70.4 nM were found for “ClpX (from UniProt P0A6H1 1-424) (enzyme)” in this work. The koff [3] was 0.00769 s⁻¹, the kon [3] was 109000 M⁻¹ s⁻¹ and the Kd [4] was 64.8 nM. It also gave a koff [4] of 0.00495 s⁻¹ and a kon [4] of 76500 M⁻¹ s⁻¹.

A koff [5] of 0.00409 s⁻¹, a kon [5] of 26600 M⁻¹ s⁻¹ and a Kd (His-SUMO-GGS-SBP [6]) of 93.6 nM were found for “GroEL (from UniProt P0A6F5 1-548) (natural protein)” in this work. The koff (His-SUMO-GGS-SBP [6]) was 0.00919 s⁻¹, the kon (His-SUMO-GGS-SBP [6]) was 98200 M⁻¹ s⁻¹ and the Kd [7] was 154 nM. The Kd (His-SUMO-GGS-SBP [8]) was 94 nM.

B1: GroTAC3 (synthetic) (designed binder)
peptide: CYRGGRPALRVVK[PEG3′]SWMTTPWGFHLP
notes: residues 17-28 in the model PDB 8S32; the (PEG)3 linker is no amino acid stretch; also called XB-PEG3-SBP; source: synthetic peptide (KareBay Biochem)
A Kd (His-ZBD) of 82.4 nM, a koff (His-ZBD) of 0.000915 s⁻¹ and a kon (His-ZBD) of 11100 M⁻¹ s⁻¹ were found for B1 in this work.

B2: GroTAC2 (synthetic) (designed binder)
peptide: CYRGGRPALRVVKGGSGGSGGSWMTTPWGFHLP
notes: flexible linker; also called untagged, synthetic GroTAC2; source: synthetic peptide (GeneScript)
A Kd (His-ZBD) of 52.6 nM, a koff (His-ZBD) of 0.00165 s⁻¹ and a kon (His-ZBD) of 31400 M⁻¹ s⁻¹ were found for B2 in this work.
